This passage reports protein production results from a protein production outcome set (Wang et al. 2014).

The nature of this data set: label from the status in PepcDB records.
Regarding “MQRRLERFDAKLVQSGLDALLVTGQNNIYYLTDFWGTNATVFITKNRRLFLTDSRYTLIAKQSVHGFDIIESKDPLKDIVKFVEVDKLETIGFDNQVSFAYYQALQAIFEGYTLSPQTNFMEELRMIKDEKELATIRKACSISDRAFTDVLDFIKPGQTTELQVANFLDFRMREYGASGISFESIIASGYRSAMPHGVASDKVIQSGETLTMDFGCYYNHYVSDMTRTIHIGETTDEEREIYDIVLRSNRALIDATKAGMTRRDYDKVARDVIVEAGYGDYFTHGIGHGIGLDIHEIPYFGNSDETIEAGMVLTDEPGIYLADKYGVRIEDDIIITENGCEVITLAPKELIVL”, the protein production entry is given as “failed”.

“QSNQAWFGNDAFFNAVCFNEAVAKQLNLPKPTSWEDLTKPVYKGHIVMPNPASSGTGYMQVSAWLQNMGEDQAWNYMRDLDKNIAHYTHSGSKPCVQAGMGEVAIGISMASRGAKLKTQGAPLAVITPKGIGWESEAVGLVKESDAAKRVVDWSISKAANELYVEMYPVVGH”: the protein production entry was “failed”.

As to “MKSTAEYLEDPEQAADRALSLLQDLGGLSAAAAWGRSGVMWRRLAGFGDLAGLPDGAALAAGERPPAGGAMAMRAGDGALGWLAWQGKPPGQMETVAELLAGHLQCEALRAEQAATRVANETMLEISLLAGECPTLDRLLPRLHRLMQRLMDADNFYIALCGDDRSTLSFPFYADRREASPPDPERAFPIAGPDVSLTAWLIRGGAPMVLTGERIEALCRQEALARPANLPAFWMGAPLRNAADELIGAAVLQRYDDQPPLTSAEQLLFMFAARHVGFALDRVLYHRRLERQVALRTSELEGANARLRAEVASRKRAEKFQDVLFRIAELSNTSLSLEAFLSGLHRLLLEMVAARNCVVALYDMGSDLISFPYCADEYAPALKPRKPGKGLIEQVLHSGRPLLLDPYGSLQGMAAAEGATPPKSWLGVPLYCDHELLGVLAVQSYDGDVVYGYRDQEVLEFVANHIGTALARVRALESLQHAYADLEQRVRERTSELDAVNAQLEFDSLHDPLTKLPNRNYFSKALRRAWDAYLDGGDRFAVVFIDLDRFKLVNDTLGHLAGDHLLFEAGARIRSCLRHYDFLARLGGDEFAVLMFGMDAVDECEVIARRIVSEFERPVVLAGREVFSTASVGVVLADSEHYHKADDLLRDADHAMYCTKQQGRQGYTLFSHQLRIDQADQLALETELRRALEEEGQLVPYYQPFIAAATGALAGFETLVRWQHPQRGLVSPGVFLPVAEESGLITRLDRYMINAACAQLQAWRAEGRVGEGIALHINLSSANFRDPDLVGWIGERIAHYRLPPAMLHLEITESALIDQPEAAATAMQALHGLGVRLALDDFGTGYSALSYLHRYRFDVLKIDQSFVFDLDRKQESVAIVRAILALARALDLEVVAEGVETASQSAMLKEMGCGMLQGFHFAAPAPAWALDWDKLARFAEGPGRVA”, the protein production result was “failed”.

For the sequence “MEYYDIIIVGAGPAGSTLARALEDSGKRVLIIDKQAFPRDKTCAGWVTPAVMASLDIDPGKYSVGRTLQPIRRFRIGMMGQSAVENDHGDIVSYGIRRCEFDDYLLDRAECEKQLATAVKSINRNNGNWVINDQWQAPLLVGAGGHFCPVARLLGDGPGKHETVVAAKEVEFEMTPEQARACEARGDTPELWFCRDLKGYAWVFRKGSYLNIGLGREDNHRLSDHLEAFVEEMKQSGRIPSDLPGRFKGHAYLLYAHANRPLVDDGVLLIGDAAGLAYTQSGEGIRPAIESALMAANVIKAAPDYSALSLQSYGERIAERFGTRATDQQPGFEVPEWLKQPIASTLMRSHWFTRKVVTEKWFLHQEVPPLEVAV”, the protein production entry was “failed”.

As for “MITIITLLLVVLISAIIVRIGAVALEMTGLSRDVAAFQAQSAFSGVGFTTSESEYVVSHPVRRRIIRILMLLGSAGVTSAIATLVLSFVGTTKEEAGYRMVVLLIGLLALYLFFRSKFIERVMRKAIKKGLSRLAPSLRVIDYSQLLGITRGYSIVQIKVKRRSWLADKTLRDLQLDKEGVLVLGIYRKVNGRRVYLGAPHGSTKVLPGDELILYGPEDVLMSLSKRLKGAKGEKEHVEAMEMAKARRVQEEREAGISV”, the protein production result is listed as “failed”.

With “MAPARLRADTGSGEPIIHSTLLYILLAATISGVGSIFGAALLSLTVASRVVERMVSFSVGVLLATALLHSLPEAFESGADTRALFGTLLAGLLGFFLLEKISLLRHSHHHEGDGHHHHHGHDREEAGRSGLTILVGDTFHNFADGIVIAAAFLANPHIGIVTALAIAAHEIPQEVGDFIVLLNAGFSKARAFAFNLLSSLAAIIGGLVGYFLLDQLTGWIPYVLVIASSSFLYIAVSDLMPQMQRKPRLKESAVQVVLVAAGIAAIVFITNGVHEQHGHRHSRTAAGVTSN”, the protein production entry was “failed”.
